Laboratory results: the supplement of paper PMC9112550, “Optimization of the antimicrobial peptide Bac7 by deep mutational scanning” (BMC Biology, 2022)

system: Escherichia coli TOP10; assay: shrunken log2 fold change of peptide-encoding DNA abundance (4.5 h post-induction vs induction); higher = less antimicrobial activity (less host growth inhibition); details: time post-induction: 4.5 h; library: site-saturation at positions 5, 18, 19, 20
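Also: peptides expressed intracellularly from a pBAD plasmid library in pooled LB shake-flask culture, induced with 0.3% L-arabinose, DNA abundance read by NGS, three biological replicates, DESeq2 with apeglm shrinkage.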

| Sequence | shrunken log2 fold change |
| --- | --- |
| RRIRHRPPRLPRPRPRPIDKPRP | 0.0156 |
| RRIRHRPPRLPRPRPRPIDLPRP | 0.036 |
| RRIRHRPPRLPRPRPRPIFPPRP | 0.033 |
| RRIRHRPPRLPRPRPRPIGGPRP | 0.111 |
| RRIRHRPPRLPRPRPRPIKLPRP | -0.118 |
| RRIRHRPPRLPRPRPRPIQDPRP | -0.00151 |
| RRIRHRPPRLPRPRPRPIQLPRP | 0.128 |
| RRIRHRPPRLPRPRPRPIQPPRP | 0.0532 |
| RRIRHRPPRLPRPRPRPIREPRP | -0.00145 |
| RRIRHRPPRLPRPRPRPITIPRP | -0.124 |
| RRIRHRPPRLPRPRPRPIWDPRP | -0.00794 |
| RRIRHRPPRLPRPRPRPIYAPRP | 0.0179 |
| RRIRHRPPRLPRPRPRPIYCPRP | -0.0143 |
| RRIRHRPPRLPRPRPRPIYLPRP | -0.211 |
| RRIRHRPPRLPRPRPRPKCTPRP | -0.0702 |
| RRIRHRPPRLPRPRPRPKDFPRP | -0.0494 |
| RRIRHRPPRLPRPRPRPKEFPRP | -0.0336 |
| RRIRHRPPRLPRPRPRPKEKPRP | 0.0444 |
| RRIRHRPPRLPRPRPRPKEYPRP | -0.0937 |
| RRIRHRPPRLPRPRPRPKFMPRP | -0.497 |
| RRIRHRPPRLPRPRPRPKHEPRP | -0.156 |
| RRIRHRPPRLPRPRPRPKIDPRP | -0.0926 |
| RRIRHRPPRLPRPRPRPKIFPRP | -0.0798 |
| RRIRHRPPRLPRPRPRPKITPRP | -0.913 |
| RRIRHRPPRLPRPRPRPKKEPRP | -0.0501 |

| Sequence | shrunken log2 fold change |
| --- | --- |
| RRIRHRPPRLPRPRPRPKKMPRP | -0.132 |
| RRIRHRPPRLPRPRPRPKKVPRP | 0.00707 |
| RRIRHRPPRLPRPRPRPKLHPRP | -0.271 |
| RRIRHRPPRLPRPRPRPKMGPRP | -0.00141 |
| RRIRHRPPRLPRPRPRPKMYPRP | -0.289 |
| RRIRHRPPRLPRPRPRPKNGPRP | -0.0347 |
| RRIRHRPPRLPRPRPRPKNKPRP | -0.521 |
| RRIRHRPPRLPRPRPRPKNWPRP | 0.136 |
| RRIRHRPPRLPRPRPRPKPFPRP | 0.0272 |
| RRIRHRPPRLPRPRPRPKQGPRP | -0.0386 |
| RRIRHRPPRLPRPRPRPKQNPRP | 0.139 |
| RRIRHRPPRLPRPRPRPKRFPRP | 0.0543 |
| RRIRHRPPRLPRPRPRPKSQPRP | -0.149 |
| RRIRHRPPRLPRPRPRPKTIPRP | -0.486 |
| RRIRHRPPRLPRPRPRPKTLPRP | -0.984 |
| RRIRHRPPRLPRPRPRPKTNPRP | -0.376 |
| RRIRHRPPRLPRPRPRPKVIPRP | 0.109 |
| RRIRHRPPRLPRPRPRPKVNPRP | -0.181 |
| RRIRHRPPRLPRPRPRPKVQPRP | 0.146 |
| RRIRHRPPRLPRPRPRPKVVPRP | -0.00398 |
| RRIRHRPPRLPRPRPRPKVWPRP | 0.331 |
| RRIRHRPPRLPRPRPRPKYRPRP | -0.138 |
| RRIRHRPPRLPRPRPRPLACPRP | 0.0188 |
| RRIRHRPPRLPRPRPRPLAWPRP | 0.198 |
| RRIRHRPPRLPRPRPRPLCAPRP | -0.0531 |

| Sequence | shrunken log2 fold change |
| --- | --- |
| RRIRHRPPRLPRPRPRPLCEPRP | 0.197 |
| RRIRHRPPRLPRPRPRPLCHPRP | -0.44 |
| RRIRHRPPRLPRPRPRPLDFPRP | -0.342 |
| RRIRHRPPRLPRPRPRPLDMPRP | -0.0339 |
| RRIRHRPPRLPRPRPRPLFMPRP | -0.492 |
| RRIRHRPPRLPRPRPRPLHFPRP | -0.0265 |
| RRIRHRPPRLPRPRPRPLHHPRP | -0.554 |
| RRIRHRPPRLPRPRPRPLISPRP | -0.387 |
| RRIRHRPPRLPRPRPRPLMMPRP | -0.124 |
| RRIRHRPPRLPRPRPRPLNCPRP | -0.134 |
| RRIRHRPPRLPRPRPRPLNIPRP | -0.386 |
| RRIRHRPPRLPRPRPRPLPRPRP | 0.176 |
| RRIRHRPPRLPRPRPRPLQFPRP | -0.28 |
| RRIRHRPPRLPRPRPRPLQHPRP | 0.0675 |
| RRIRHRPPRLPRPRPRPLQLPRP | -0.213 |
| RRIRHRPPRLPRPRPRPLRRPRP | 0.3 |
| RRIRHRPPRLPRPRPRPLSDPRP | -0.0615 |
| RRIRHRPPRLPRPRPRPLSMPRP | -0.396 |
| RRIRHRPPRLPRPRPRPLTKPRP | 0.133 |
| RRIRHRPPRLPRPRPRPLVGPRP | 0.00867 |
| RRIRHRPPRLPRPRPRPLVQPRP | -0.0987 |
| RRIRHRPPRLPRPRPRPLWDPRP | -0.15 |
| RRIRHRPPRLPRPRPRPLWFPRP | -0.00823 |
| RRIRHRPPRLPRPRPRPLWNPRP | -1.07 |
| RRIRHRPPRLPRPRPRPLWQPRP | -0.145 |
